The text below walks through data of US20260209325A1 (SCHOLAR ROCK, published 2026).

In assay [1] the target is human GDF-11 (human, UniProt O95390 299-407, limits assumed). The experiment in a line: plate binding assay, OD 450 nm, one antibody concentration that is not given, on Hu-GDF-11 (method not described in the text).
The target of assay [2] is mouse GDF-11 (mouse, UniProt Q9Z1W4 297-405, limits assumed). The experiment in a line: plate binding assay, OD 450 nm, one antibody concentration that is not given, on Mu-GDF-11 (method not described in the text).
Sequence of mouse GDF-11 (Q9Z1W4 297-405 limits assumed): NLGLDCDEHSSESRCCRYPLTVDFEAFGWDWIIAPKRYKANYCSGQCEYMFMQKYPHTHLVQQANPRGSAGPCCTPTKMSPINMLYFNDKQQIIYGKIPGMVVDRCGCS
Assay [3] deals with T1, human pro-myostatin (human, UniProt O14793 24-375, biotinylated (in the SPR assay)).
T1 construct: Disulfide-linked homodimer; also called proGDF8 (human)
The experiment in a line: plate binding assay, OD 450 nm, antibody titrated 0.0003 to 100 nM, panel 'Hu-Pro-GDF-8 Plate 1' (method not described in the text).

The target of assay [4] is T2, murine pro-myostatin (mouse, UniProt O08689 25-376, biotinylated (in the SPR assay)).
T2 construct: also called proGDF8 (mouse); mouse pro-myostatin
The experiment in a line: plate binding assay, OD 450 nm, antibody titrated 0.0003 to 100 nM, panel 'Mu-Pro-GDF-8 Plate 1' (method not described in the text).

Assay [5] addresses T1, human pro-myostatin. The experiment in a line: cell-based or functional assay.
Assay [6] deals with recombinant human latent myostatin (human, UniProt O14793 24-375, biotinylated (in the Octet pH assay only)). As to the kind of experiment: cell-based or functional assay.
The target in assay [7] is T1, human pro-myostatin. As to the kind of experiment: SPR Biacore 8K, biotin-antigen captured. On the technique in general: In SPR one partner is held on a chip, and binding of the other changes the refractive index at the surface.
The target of assay [8] is T2, murine pro-myostatin. The experiment in a line: SPR Biacore 8K, biotin-antigen captured.
Assay [9] has as its target T3, cyno pro-myostatin (cynomolgus monkey, Biotinylated for capture in the SPR assay (site not stated). The native form is a disulfide-linked homodimer, partly furin-cleaved; one chain is given.).
T3 construct: also called proGDF8 (cynomolgus); cynomolgus monkey pro-myostatin
As to the kind of experiment: SPR Biacore 8K, biotin-antigen captured.

Assay [10] concerns the target T3, cyno pro-myostatin. As to the kind of experiment: plate binding assay, absorbance at 450 nm, antibody titrated 100 to about 0.002 nM, panel 'Cyno Pure Pro-GDF-8' (method not described in the text).
The target of assay [11] is T1, human pro-myostatin. As to the kind of experiment: plate binding assay, absorbance at 450 nm, antibody titrated 100 to about 0.002 nM, panel 'Human Pure Pro-GDF-8' (method not described in the text).
Assay [12] concerns the target T2, murine pro-myostatin. As to the kind of experiment: plate binding assay, absorbance at 450 nm, antibody titrated 100 to about 0.002 nM, panel 'Murine Pure Pro-GDF-8' (method not described in the text).
Assay [13] has as its target T1, human pro-myostatin. The experiment in a line: plate binding assay, OD 450 nm, antibody titrated 0.0003 to 100 nM, panel 'Hu-Pro-GDF-8 Plate 2' (method not described in the text).
Assay [14] concerns the target T2, murine pro-myostatin. The experiment in a line: plate binding assay, OD 450 nm, antibody titrated 0.0003 to 100 nM, panel 'Mu-Pro-GDF-8 Plate 2' (method not described in the text).
Assay [15] deals with T3, cyno pro-myostatin. The experiment in a line: plate binding assay, OD 450 nm, antibody titrated 0.0003 to 100 nM, panel 'Cyno-Pro-GDF-8 Plate 2' (method not described in the text).

Sequence of human GDF-11 (O95390 299-407 limits assumed): as the sequence (Q9Z1W4 297-405 limits assumed) above

B1: Ab111 (antibody, human IgG4 S228P, kappa, V domains shown)
VH: QVQLVQSGAEVKKPGASVKVSCKVSGYTFTSNDIHWVRQAPGKGLEWMGGIFPIFGTTIYAQKFQGRVTMTEDTSTDTAYMELSSLKSEDTAVYYCAREGLGYDFDYWGQGTLVTVSS
VL: DIQMTQSPSSVSASVGDRVTITCRASQNIGNWLAWYQQKPGKAPKLLIYSASALQSGVPSRFSGSGSGTDFTLTISSLQPEDFANYYCQQSYGAPMYSFGGGTKVEIKR
For B1, the binding result was “no binding” in assay [1], “no binding” in assay [2], “binds” in assay [3] and “binds” in assay [4].

B2: Ab104 (antibody, human IgG4 S228P, kappa, V domains shown)
VH: EVQLVESGGGLVQPGGSLRLSCAASGSAFSSYGMSWVRQAPGKGLELVASINSNGGSTYYPDSVKGRFTISRDNAKNSLYLQMNSLRAEDTAVYYCARDLLVKFLSWSHYYGMDVWGQGTTVTVSS
VL: DIVMTQSPLSLPVTPGEPASISCRSSQSLLHSSGHNFLHWYLQKPGQSPQLLIYEVSNRVSGVPDRFSGSGSGTDFTLKISRVEAEDVGVYYCMQQTQYPPTFGGGTKVEIKR
A word on the Kd: it is the equilibrium constant for the complex coming apart. The koff is the rate constant with which the complex falls apart. Higher therefore signals a short-lived complex. By kon is commonly meant the second-order rate constant of association. Higher therefore signals faster complex formation. As a reminder, the EC50 (read off the curve) is the concentration that produces a half-maximal response. Consider B2, for which the “IC50 (nM) Pro + Furin” value in assay [5] amounted to 0.363 nM. In addition, the “IC50 (nM) Latent + mTLL2” value in assay [6] is 0.22 nM. Also, the figures for the Kd in assay [7], in assay [8] and in assay [9] were 0.1 nM, 0.145 nM and 0.076 nM, respectively. For the same molecule, the off-rate constant (koff) in assay [7] was determined as 0.000381 s⁻¹; in assay [8], 0.000518 s⁻¹; in assay [9] it was 0.000322 s⁻¹. Also, the figures for the kon in [7], in [8] and in assay [9] were 3.82e+06 M⁻¹ s⁻¹, 3.58e+06 M⁻¹ s⁻¹ and 4.21e+06 M⁻¹ s⁻¹, respectively. Besides, the concentration for a half-maximal effect (EC50 (read off the curve)) in assay [10] was roughly 0.7 nM; in assay [11], roughly 0.5 nM; in assay [12], roughly 0.6 nM.

B3: Ab121 (antibody, human IgG4 S228P, kappa, V domains shown)
VH: QVTLRESGPALVKPTQTLTLTCTVSGFSFSTSGMVVNWIRQPPGKALEWLAMIDWDADNIVYNSALKSRLTISKDTSKNQVVLTMTNMDPVDTATYYCAKDTGSGWFDAFDIWGQGTMVTVSS
VL: DIVMTQSPDSLAVSLGERATINCKSSQSVLYSSTNQNFLAWYQQKPGQPPKLLIYQASTLQNGVPDRFSGSGSGTDFTLTISSLQAEDVAVYYCQQYLTTPYTFGGGTKVEIKR
Regarding B3, the “IC50 (nM) Pro + Furin” value in assay [5] came out at 0.143 nM. In addition, the “IC50 (nM) Latent + mTLL2” value in [6] is 0.386 nM. The results for the Kd in [7], in [8] and in [9] were 0.101 nM, 0.187 nM and 0.106 nM, respectively. Besides, the dissociation rate constant (koff) amounted to 0.000318 s⁻¹ in assay [7], 0.000608 s⁻¹ in assay [8] and 0.000365 s⁻¹ in [9]. Further, the results for the kon in assay [7], in assay [8] and in assay [9] were 3.16e+06 M⁻¹ s⁻¹, 3.24e+06 M⁻¹ s⁻¹ and 3.45e+06 M⁻¹ s⁻¹, respectively. For the same molecule, the “EC50 (read off the curve)” value in assay [13], in [14] and in assay [15] was roughly 0.2 nM in each case.

B4: Ab113 (antibody, human IgG4 S228P, kappa, V domains shown)
VH: QVQLVQSGAEVKKPGASVKVSCKVSGYLLTELSIHWVRQAPGKGLEWMGGIIPSFGTAIYAQKFQGRVTMTEDTSTDTAYMELSSLKSEDTAVYYCAISYSGFDLLPLDKWGQGTLVTVSS
VL: DIQMTQSPSSVSASVGDRVTITCRASQHISTWLAWYQQKPGKAPKLLIYYASSLQGGVPSRFSGSGSGTDFTLTISSLQPEDFANYYCLQTYTYPRTFGGGTKVEIKR
With B4, the binding result in assay [1] and in assay [2] was “no binding” in each case. Besides, the half-maximal effective concentration (EC50 (read off the curve)) in assay [3] is roughly 0.2 nM; in assay [4], roughly 0.4 nM.
